Substrate in series [1]: NC(=O)C[C@H](N)C(=O)O
Kind of series: Nessler ammonium assay, Michaelis-Menten fit. The conditions noted are these: physiological pH (printed as pH 7 and as phosphate pH 7.4), 37 °C. The format is biochemical, Rhizobium etli.

Substrate in series [2]: NC(=O)C[C@H](N)C(=O)O
Nature of the series: Nessler ammonium assay, Michaelis-Menten fit. The format is biochemical, Embleya scabrispora. The conditions noted are these: pH 10 (optimum), 37 °C, 0.5-20 mM asparagine. The text has this:
Nessler ammonium assay, Michaelis-Menten fit on S. scabrisporus L-asparaginase

B1: R. etli L-asparaginase (Rhizobium etli CFN 42) (protein)
chain: MTPSEDFVVTDRGGIVENSHRVHAAVVDAKGRLLYALGNPTRMTLARSAAKPAQALAILETEGVAGYGFDDADIALMCASHSSEDRHIARTRAMLSKIKAEEADLRCGGHPSLSEMVNRSWIKQDFIPTAVCSNCSGKHVGMLAGARAIGAGTDGYHLPDHPMQGRVKRTVAELCDLDAGDVEWGTDGCNLPTPAFPLDRLGRIYAKLASAADGSDAGEGQSTRCAALAHIFRAMARHPEMVAGEGRYCTMLMRAFDGALVGKLGADASYAIGVRASDATRQLGTDGALGISVKIEDGNLEMLYAVVTELLERLGIGSPDVRSQLASFHHPQRVNTMGVTTGGVSFPFKLRGSKSNVDDPRLAAVAR
notes: pET28a (NcoI/EcoRI; pET28a-AnsRe), E. coli BL21(DE3), HisTrap purified, 38 kDa
For the protein B1, in series [1], the Michaelis-Menten constant (Km) came out at 15.9 ± 4.7 mM and the turnover number (kcat) amounted to 140.3 ± 7 s⁻¹.

B2: S. scabrisporus L-asparaginase (Embleya scabrispora) (protein)
chain: MRPEDTVPHESTTRYAELAEVVRSGFVESRHFGSLVALAPDGRPALELGVPNEPVVPRSSAKPFQALACLRAGAPLSGAHVAIAAGSHTGQDFHVDAVEDILTRSGLTFDALGCPPSRPEDEDTYQEMIARGEENTRERMNCSGKHAAMLAACVASGWPTEGYLDPGHPLQVLVREGIEELAGESVAHTAVDGCGAPVFAMTLTGLARGVRALATATTGPERVVAKAMREHPAYVGGDGQANTEVMRLLPGVLVKGGAEGVFVAATTAGHAVAVKVIDGSPRATTALALAALHRLGVDVSAASEWTTVPVLGGGLPVGEVRVTSHLG
notes: codon-optimised gene in pET28a(+) (NdeI/EcoRI; pET28a-AnsSs), E. coli BL21(DE3), HisTrap purified, 34 kDa
In the case of B2, in series [2], the Km came out at 7.361 ± 1.78 mM and the turnover number (kcat) was determined as 40.8 ± 2 s⁻¹.

Source of the values: paper PMC12594388, “Enzymatic properties of a L-asparaginase without secondary glutaminase activity from Streptomyces scabrisporus” (PLOS One, 2025).
